From publication PMC2826804 (Journal of molecular biology, 2009) come the findings set out here.

This series concerns the molecule itself. Nature of the series: native gel or EMSA.

B1: GST-LARP6 fusion protein (La ribonucleoprotein domain family, member 6) (natural protein, human, UniProt Q9BRS8 1-491, looked up)
chain: MAQSGGEARPGPKTAVQIRVAIQEAEDVDELEDEEEGAETRGAGDPARYLSPGWGSASEEEPSRGHSGTTASGGENEREDLEQEWKPPDEELIKKLVDQIEFYFSDENLEKDAFLLKHVRRNKLGYVSVKLLTSFKKVKHLTRDWRTTAHALKYSVVLELNEDHRKVRRTTPVPLFPNENLPSKMLLVYDLYLSPKLWALATPQKNGRVQEKVMEHLLKLFGTFGVISSVRILKPGRELPPDIRRISSRYSQVGTQECAIVEFEEVEAAIKAHEFMITESQGKENMKAVLIGMKPPKKKPAKDKNHDEEPTASIHLNKSLNKRVEELQYMGDESSANSSSDPESNPTSPMAGRRHAATNKLSPSGHQNLFLSPNASPCTSPWSSPLAQRKGVSRKSPLAEEGRLNCSTSPEIFRKCMDYSSDSSVTPSGSPWVRRRRQAEMGTQEKSPGTSPLLSRKMQTADGLPVGVLRLPRGPDNTRGFHGHERSRACV
As for B1, the binding result was “binds”.
